The text below walks through data of IntAct's records for PubMed 10524631.

The labels stand for the following.
B1: Phytochrome A (Arabidopsis thaliana (Mouse-ear cress)), P14712 (parent)
chain: MSGSRPTQSSEGSRRSRHSARIIAQTTVDAKLHADFEESGSSFDYSTSVRVTGPVVENQPPRSDKVTTTYLHHIQKGKLIQPFGCLLALDEKTFKVIAYSENASELLTMASHAVPSVGEHPVLGIGTDIRSLFTAPSASALQKALGFGDVSLLNPILVHCRTSAKPFYAIIHRVTGSIIIDFEPVKPYEVPMTAAGALQSYKLAAKAITRLQSLPSGSMERLCDTMVQEVFELTGYDRVMAYKFHEDDHGEVVSEVTKPGLEPYLGLHYPATDIPQAARFLFMKNKVRMIVDCNAKHARVLQDEKLSFDLTLCGSTLRAPHSCHLQYMANMDSIASLVMAVVVNEEDGEGDAPDATTQPQKRKRLWGLVVCHNTTPRFVPFPLRYACEFLAQVFAIHVNKEVELDNQMVEKNILRTQTLLCDMLMRDAPLGIVSQSPNIMDLVKCDGAALLYKDKIWKLGTTPSEFHLQEIASWLCEYHMDSTGLSTDSLHDAGFPRALSLGDSVCGMAAVRISSKDMIFWFRSHTAGEVRWGGAKHDPDDRDDARRMHPRSSFKAFLEVVKTRSLPWKDYEMDAIHSLQLILRNAFKDSETTDVNTKVIYSKLNDLKIDGIQELEAVTSEMVRLIETATVPILAVDSDGLVNGWNTKIAELTGLSVDEAIGKHFLTLVEDSSVEIVKRMLENALEGTEEQNVQFEIKTHLSRADAGPISLVVNACASRDLHENVVGVCFVAHDLTGQKTVMDKFTRIEGDYKAIIQNPNPLIPPIFGTDEFGWCTEWNPAMSKLTGLKREEVIDKMLLGEVFGTQKSCCRLKNQEAFVNLGIVLNNAVTSQDPEKVSFAFFTRGGKYVECLLCVSKKLDREGVVTGVFCFLQLASHELQQALHVQRLAERTAVKRLKALAYIKRQIRNPLSGIMFTRKMIEGTELGPEQRRILQTSALCQKQLSKILDDSDLESIIEGCLDLEMKEFTLNEVLTASTSQVMMKSNGKSVRITNETGEEVMSDTLYGDSIRLQQVLADFMLMAVNFTPSGGQLTVSASLRKDQLGRSVHLANLEIRLTHTGAGIPEFLLNQMFGTEEDVSEEGLSLMVSRKLVKLMNGDVQYLRQAGKSSFIITAELAAANK
partner: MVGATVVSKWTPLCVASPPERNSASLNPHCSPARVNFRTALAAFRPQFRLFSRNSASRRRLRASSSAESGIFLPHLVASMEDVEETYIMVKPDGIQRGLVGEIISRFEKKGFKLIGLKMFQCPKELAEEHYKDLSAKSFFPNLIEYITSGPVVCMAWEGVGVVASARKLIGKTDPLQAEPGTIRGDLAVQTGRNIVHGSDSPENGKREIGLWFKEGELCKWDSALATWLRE

The assay covers variants of B1. To be noted: with ndk2_arath NDPK2, O64903.
As to G750E, the “effect of a mutation on the interaction” value is given as “decreasing interaction strength”.

As for G727E, the “effect of a mutation on the interaction” value was “decreasing interaction”.
